Biological target: HLA-A*24 (human)
Test: UV-ligand exchange ELISA

| Binder | peptide exchange yield [%] |
| --- | --- |
| TYSVSFPMF [peptide SEQ ID No 195] | > 75 |
| TYTQDFNKF [peptide SEQ ID No 208] | 50 to 75 |
| VFKASKITF [peptide SEQ ID No 191] | 50 to 75 |
| AYTLIAPNI [peptide SEQ ID No 169] | 50 to 75 |
| EYQENFLSF [peptide SEQ ID No 206] | 50 to 75 |
| IFLDYEAGTLSF [peptide SEQ ID No 227] | > 75 |
| IYDDSFIRPVTF [peptide SEQ ID No 180] | 50 to 75 |
| EFGSLHLEFL [peptide SEQ ID No 194] | < 20 |
| VYVGGGQIIHL [peptide SEQ ID No 174] | 50 to 75 |
| IYSWILDHF [peptide SEQ ID No 173] | > 75 |
| YYEVHKELF [peptide SEQ ID No 175] | > 75 |
| TYTTVPRVAF [peptide SEQ ID No 172] | > 75 |
| IFIEVFSHF [peptide SEQ ID No 178] | 50 to 75 |
| TYGDAGLTYTF [peptide SEQ ID No 283] | 50 to 75 |
| LFIPSSKLLFL [peptide SEQ ID No 171] | 50 to 75 |
| IYTMIYRNL [peptide SEQ ID No 210] | > 75 |
| RYSTGLAGNLL [peptide SEQ ID No 221] | 50 to 75 |
| RYPDNLKHLYL [peptide SEQ ID No 280] | > 75 |
| KYIPYKYVI [peptide SEQ ID No 223] | 50 to 75 |
| KFSSFSLFF [peptide SEQ ID No 164] | 50 to 75 |
| VHIPEVYLI [peptide SEQ ID No 205] | 50 to 75 |
| FYSRLLQKF [peptide SEQ ID No 203] | 50 to 75 |
| VYEDQVGKF [peptide SEQ ID No 170] | 20 to 49 |
| MYDSYWRQF [peptide SEQ ID No 179] | > 75 |
| RFHPTPLLL [peptide SEQ ID No 193] | > 75 |

| Binder | peptide exchange yield [%] |
| --- | --- |
| AYLHSHALI [peptide SEQ ID No 274] | > 75 |
| IYKVGAPTI [peptide SEQ ID No 185] | 50 to 75 |
| DYTTWTALL [peptide SEQ ID No 165] | > 75 |
| DYLKGLASF [peptide SEQ ID No 163] | > 75 |
| WYVNGVNYF [peptide SEQ ID No 189] | 20 to 49 |
| RYLNKAFHI [peptide SEQ ID No 284] | 50 to 75 |
| LYLDKATLI [peptide SEQ ID No 198] | 50 to 75 |
| VFTRVSSFL [peptide SEQ ID No 162] | 50 to 75 |
| KYQDILETI [peptide SEQ ID No 168] | > 75 |
| RYFKGLVF [peptide SEQ ID No 188] | 50 to 75 |
| VFQNFPLLF [peptide SEQ ID No 184] | > 75 |
| RYPDNLKHL [peptide SEQ ID No 286] | 20 to 49 |
| TYIKPISKL [peptide SEQ ID No 273] | 50 to 75 |
| YYVYIMNHL [peptide SEQ ID No 225] | 50 to 75 |
| VYPWLGALL [peptide SEQ ID No 177] | > 75 |
| EYPLVINTL [peptide SEQ ID No 219] | 50 to 75 |
| TYLRDQHFL [peptide SEQ ID No 187] | > 75 |
| KYPVEWAKF [peptide SEQ ID No 289] | > 75 |
| LYLKLWNLI [peptide SEQ ID No 214] | 50 to 75 |
| IYQLDTASI [peptide SEQ ID No 182] | 50 to 75 |
| IFPQFLYQF [peptide SEQ ID No 186] | > 75 |
| QYSSVFKSL [peptide SEQ ID No 216] | > 75 |
| LYNKGFIYL [peptide SEQ ID No 159] | > 75 |
| EYNQWFTKL [peptide SEQ ID No 176] | 50 to 75 |
| GFFIFNERF [peptide SEQ ID No 190] | 50 to 75 |

| Binder | peptide exchange yield [%] |
| --- | --- |
| YFDKVVTL [peptide SEQ ID No 215] | 20 to 49 |
| SYALLTYMI [peptide SEQ ID No 192] | > 75 |
| NYINRILKL [peptide SEQ ID No 167] | > 75 |
| FFPPTRQMGLLF [peptide SEQ ID No 217] | > 75 |
| KYTSWYVAL [peptide SEQ ID No 228] | > 75 |
| YYLEVGKTLI [peptide SEQ ID No 211] | > 75 |
| RYISDQLFTNF [peptide SEQ ID No 278] | > 75 |
| KYMVYPQTF [peptide SEQ ID No 267] | > 75 |
| QYLQDAYSF [peptide SEQ ID No 272] | > 75 |
| VYRDETGELF [peptide SEQ ID No 226] | 50 to 75 |
| VYTLDIPVL [peptide SEQ ID No 160] | > 75 |
| EYSLFPGQVVI [peptide SEQ ID No 197] | 50 to 75 |
| QYLENLEKL [peptide SEQ ID No 224] | 50 to 75 |
| KFVDSTFYL [peptide SEQ ID No 282] | > 75 |
| LYHDIFSRL [peptide SEQ ID No 271] | > 75 |
| YYVESGKLF [peptide SEQ ID No 166] | > 75 |
| VYGFQWRHF [peptide SEQ ID No 276] | > 75 |
| TYIESASEL [peptide SEQ ID No 279] | 50 to 75 |
| LYLDIINLF [peptide SEQ ID No 181] | > 75 |
| VYVSDIQEL [peptide SEQ ID No 288] | 50 to 75 |
| IYLVSIPEL [peptide SEQ ID No 161] | > 75 |
| VFTSTARAF [peptide SEQ ID No 183] | 50 to 75 |
| HYSQELSLLYL [peptide SEQ ID No 158] | > 75 |
| LYIDRPLPYL [peptide SEQ ID No 196] | 50 to 75 |
| EYINQGDLHEF [peptide SEQ ID No 275] | 50 to 75 |

— patent US20170189507A1
